In paper PMC5413351, “Structural basis of protein translocation by the Vps4-Vta1 AAA ATPase” (eLife, 2017):
Where no end group is shown, it is not given here.

Biological target: Vta1^VSL (S. cerevisiae, UniProt Q06263 1-330)
Assay: cryo-EM structure
Conditions: both partners purified

B1: Vta1^VSL (domain or fragment)
chain: SYTKDELTKIMDRASKIEQIQKLAKYAISALNYEDLPTAKDELTKALDLLNSI
modifications: also: homodimer
- stoichiometry N: 2
